Experiment [1] concerns the target T1, human CD19 (human, UniProt P15391 20-556).
T1 construct: whole, on cells; also called Cluster of Differentiation 19; hPro1
T1 sequence (looked up): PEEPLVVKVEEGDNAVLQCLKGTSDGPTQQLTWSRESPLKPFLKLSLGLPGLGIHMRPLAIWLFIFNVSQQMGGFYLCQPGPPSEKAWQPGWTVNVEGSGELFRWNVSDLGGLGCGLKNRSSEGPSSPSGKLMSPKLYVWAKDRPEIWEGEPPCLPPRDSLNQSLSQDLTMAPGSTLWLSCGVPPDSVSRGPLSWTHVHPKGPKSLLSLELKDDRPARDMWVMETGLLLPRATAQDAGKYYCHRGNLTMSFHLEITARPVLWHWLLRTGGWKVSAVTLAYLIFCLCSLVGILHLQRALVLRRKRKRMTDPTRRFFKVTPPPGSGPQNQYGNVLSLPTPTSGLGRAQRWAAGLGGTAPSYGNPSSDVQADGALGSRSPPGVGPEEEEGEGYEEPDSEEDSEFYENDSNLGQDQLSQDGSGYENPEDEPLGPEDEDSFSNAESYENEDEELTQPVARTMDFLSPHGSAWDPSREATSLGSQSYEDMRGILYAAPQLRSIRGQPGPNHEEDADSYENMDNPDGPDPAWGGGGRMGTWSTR
Put plainly: flow cytometry on Ramos cells. The method, then:
The Ramos cells were plated in 96-well U-bottom plates (BD) at a density of 1×10⁵ cells/well. The purified antibody were serially diluted in the staining buffer (1×PBS/1% BSA) and incubated with cells for 1 hr at 4° C. The cells were then washed twice with staining buffer (BSA/1×PBS). […] The cells were then washed twice and re-suspended in 100 μL staining buffer. The fluorescence intensity was measured by flow cytometry (BD Canto II) and analyzed by FlowJo.
Binding activity of the selected subclones were tested on Ramos cell by flow cytometry (FIG. 4).
(A flow cytometer gives signals particle by particle.)

The target in experiment [2] is T1, human CD19. Put plainly: flow cytometry on CD19 transfected CHO-K1 cells, Scatchard analysis. The method, then:
The CD19 transfected CHO-K1 cells or Ramos cells were plated in a 96-well plates (BD) at a density of 5×10⁴ cells/well. Antibodies to be tested were serially diluted in the staining buffer (1×PBS/1% BSA) and incubated with cells at 4° C. for 1 hr.
The affinity of selected candidate antibodies were tested on CD19 transfected CHO-K1 cell by flow cytometry.

Experiment [3] deals with T1, human CD19. Put plainly: cell-based or functional assay.
Experiment [4] concerns the target T2, cynomolgus monkey CD19 (cynomolgus monkey, UniProt A0A2K5W8L9 20-557).
T2 construct: whole, on cells; also called cyno CD19; cPro1
T2 sequence: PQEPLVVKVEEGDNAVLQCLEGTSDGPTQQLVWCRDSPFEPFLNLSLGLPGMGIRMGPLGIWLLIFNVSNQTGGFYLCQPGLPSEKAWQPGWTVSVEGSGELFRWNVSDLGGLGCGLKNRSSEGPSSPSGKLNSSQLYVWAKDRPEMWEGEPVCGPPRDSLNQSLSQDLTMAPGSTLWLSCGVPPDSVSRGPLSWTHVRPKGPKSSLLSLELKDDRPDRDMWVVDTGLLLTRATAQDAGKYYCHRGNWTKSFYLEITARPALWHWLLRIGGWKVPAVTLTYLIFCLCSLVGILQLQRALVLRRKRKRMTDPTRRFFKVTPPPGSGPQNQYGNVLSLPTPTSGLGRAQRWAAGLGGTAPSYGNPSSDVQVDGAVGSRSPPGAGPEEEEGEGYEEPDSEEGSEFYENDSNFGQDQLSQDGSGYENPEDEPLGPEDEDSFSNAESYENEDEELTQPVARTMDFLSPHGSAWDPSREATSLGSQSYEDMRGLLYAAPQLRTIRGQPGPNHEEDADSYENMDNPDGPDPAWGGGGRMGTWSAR
The experiment can be described thus: flow cytometry on cynomolgus CD19 transfected CHO-K1 cells. The method, then: The cynomolgus CD19 transfected CHO-K1 cells were plated in 96-well U-bottom plates (BD) at a density of 1×10⁵ cells/well. The purified antibody were serially diluted in the staining buffer (1×PBS/1% BSA) and incubated with cells for 1 hr at 4° C. The cells were then washed twice with staining buffer (BSA/1×PBS). […] The cells were then washed twice and re-suspended in 100 μL staining buffer. The fluorescence intensity was measured by flow cytometry (BD Canto II) and analyzed by FlowJo.
The binding activity to cynomogus monkey CD19 of candidate antibodies was evaluated using cynomolgus monkey CD19 transfected CHO-K1 cell line (FIG. 5).

B1: WBP7011_4.155.8 (antibody, V domains shown)
VH: EIQLQQSGPELVKPGASVKVSCKASGYAFTSYNMYWVKQSHGKSLEWIGYIDPYNGDTTYNQKFKGKATLTVDKSSSTAYMHLNSLTSEDSAVYYCLTTAYAMDYWGQGTSVTVSS
VL: QIVLTQSPAIMSASLGEEITLTCSASSTVNYMHWYQQKSGTSPKLLIYSTSNLASGVPSRFSGSGSGTFYSLTIRSVEAEDAADYYCHQWSSYPYTFGGGTKLEIK
Take B1: the EC50 (commonly the midpoint of the concentration-response curve) amounted to 0.85 nM in experiment [1] and 1.54 nM in experiment [4]. For the same molecule, the affinity in experiment [2], expressed as Kd, was 0.949 nM. The “EC50 of cell viability, Fab-Zap assay on Ramos cells (internalization)” value (“EC50 of cell viability, Fab-Zap assay” for short) in experiment [3] was found to be 0.0276 nM.

B2: WBP7011_4.202.9 (antibody, mouse IgG2a, V domains shown)
VH: EIQLQQSGPELVKPGASVKVSCKASGYAFTSYNMYWVKQSHGKSLEWIGYIDPYNGDTTYNQKFKGKATLTVDKSSSTAYMHLNSLTSEDSAVYYCLTTAYAMDYWGQGTSVTVSS
VL: QIVLTQSPAIMSASLGEEITLTCSASSTVNYMHWYQQKSGTSPKLLIYSTSNLASGVPSRFSGSGSGTFYSLTIRSVEAEDAADYYCHQWSSYPYTFGGGTKLEIK
notes: also called W7011-4.202.9
Take B2: the results for the EC50 in experiment [1] and in experiment [4] were 0.64 nM and 2.3 nM, respectively. Further, binding in experiment [2] was characterised by a dissociation constant (Kd) of 0.847 nM. In experiment [3], the “EC50 of cell viability, Fab-Zap assay” value stood at 0.0236 nM.

B3: WBP7011-4.100.1 (antibody, V domains shown)
VH: EVQLQQSGPELVKPGASVKMSCKASGYTFTSYVIHWVKQKPGQGLEWIGYINPYNDGAEYTEKFKGKATLTSDKSSSTAYMELSSLTSEDSTVYYCARGPYYYGGSPFDYWGQGTTLTVSS
VL: DAVMTQTPLSLPVSLGDQASISCRSSQSLENSNGNTYLNWYLQKPGQSPQLLIYRVSNRFSGVLDRFSGSGSGTDFTLKISRVEAEDLGVYFCLQVTHVPYTFGGGTKLEIK
notes: also called W7011-4.100.1
In the case of B3, the EC50 turned out to be 0.17 nM in experiment [1] and 0.438 nM in experiment [4]. Binding in experiment [2] was characterised by a dissociation constant (Kd) of 0.213 nM. In addition, the “EC50 of cell viability, Fab-Zap assay” value in experiment [3] stood at 0.0148 nM.

B4: WBP7011_4.56.1 (antibody, V domains shown)
VH: EVQLQQSGPELVKPGASVKMSCKASGYTFTNYVIHWVKQKPGQGLEWIGYINPYNDGTEYNEKFKGKATLTSDTSSSTAYMALSSLTSEDSAVYYCTRGPYYYGGSPFDYWGQGTTLTVSS
VL: DAVMTQTPLSLPVSLGDQASISCRSSQSLENSNGNTYLNWYLQKPGQSPQLLIYRVSNRFSGVLDRFSGSGSGTDFTLKISRVEAEDLGVYFCLQVTHVPYTFGGGTKLEIK
notes: also called W7011-4.56.1
In the case of B4, the EC50 in experiment [1] stood at 0.1 nM; in experiment [4] it was 0.438 nM. Further, in experiment [2], the Kd (in general, the equilibrium constant for the complex coming apart) amounted to 0.118 nM. Further, the “EC50 of cell viability, Fab-Zap assay” value in experiment [3] was determined as 0.0084 nM.

B5: WBP7011_4.194.10 (antibody, V domains shown)
VH: EVQLQQSGPELVKPGASVKMSCKASGYTFTSYVMHWVKQKPGQGLEWIGYINPYNDGTKYNEKFKGKATLTSDKSSSTAYMELSSLTSEDSAVYYCARGPYYYGSSPFDYWGQGTTLTVSS
VL: DAVMTQTPLSLPVSLGDQASISCRSSQTLENSNGNTYLNWYLQKPGQSPQLLIYRVSNRFSGVLDRFSGSGSGTDFTLKISRVETEDLGVYFCLQVTHVPYTFGGGTKLEIK
notes: also called W7011-4.194.10
For the molecule B5, the values for the EC50 in experiment [1] and in experiment [4] were 0.15 nM and 0.996 nM, respectively. In addition, the Kd in experiment [2] was determined as 0.42 nM. For the same molecule, the “EC50 of cell viability, Fab-Zap assay” value in experiment [3] was determined as 0.0117 nM.

B6: WBP7011_4.108.3 (antibody, V domains shown)
VH: EVQLQQSGPELVKPGASVEMSCKASGYTFTSYVIHWLKQKPGQGLEWIGYINPYNDGAEYNEKFKGKATLTSDKSSSTAYMDLNSLTSEDSAVYYCARGPYYYGSSPFDYWGQGTTLTVSS
VL: DAVMTQTPLSLPVSLGDQASISCRSSQSLENSNGNTYLNWYLQKPGQSPQLLIYRVSNRFSGVLDRFSGSGSGTDFTLKISRVEAEDLGVYFCLQVTHVPYTFGGGTKLEIK
notes: also called W7011-4.108.3
In the case of B6, the results for the EC50 in experiment [1] and in experiment [4] were 0.19 nM and 0.863 nM, respectively. In experiment [2], this molecule displayed a Kd of 0.252 nM. The “EC50 of cell viability, Fab-Zap assay” value in experiment [3] stood at 0.0206 nM.

B7: WBP7011-4.15.10 (antibody, V domains shown)
VH: EVQLQQSGPELVKPGASVKMSCKASGYTFTSYVMHWMKQKPGQGLEWIGYINPYNDGTEYHEKFKGKATLTSDKSSSTAYMELSSLTSEDSAVFYCARGPYYYGGSPFDFWGQGTTLTVSS
VL: DAVMTQTPLSLPVSLGDQASISCRSSQSLENSNGNTYLNWYLQKPGQSPQLLIYRVSNRFSGVLDRFSGSGSGTDFTLKISRVEAEDLGVYFCLQVTHVPYTFGGGTKLEIK
notes: also called W7011-4.15.10
In the case of B7, the results for the EC50 in experiment [1] and in experiment [4] were 0.31 nM and 0.46 nM, respectively. In experiment [2], the Kd was determined as 0.17 nM. Besides, the “EC50 of cell viability, Fab-Zap assay” value in experiment [3] amounted to 0.0139 nM.

B8: WBP7011_4.231.5 (antibody, V domains shown)
VH: EVQLQQSGPELVKPGASVKMSCKASGYTFTSYVMHWVKQKPGQGLEWIGYINPYNDGTQYNEKFKGKATLTSDKSSSTAYMELSSLTSEDSAVYYCARGPYYYSPSPFDYWGQGTTLTVSS
VL: DAVMTQTPLSLPVSLGDQASISCRSSQSLENSNGNTYLNWYLQKPGQSPQLLIYRVSNRFSGVLDRFSGSGSGTDFTLKISRVEAEDLGVYFCLQVTHVPYTFGGGTKLEIK
notes: also called W7011-4.231.5
Consider B8, for which the figures for the EC50 in experiment [1] and in experiment [4] were 0.12 nM and 0.628 nM, respectively. In experiment [2], this molecule displayed a Kd of 0.17 nM. For the same molecule, in experiment [3], the “EC50 of cell viability, Fab-Zap assay” value was determined as 0.0085 nM.

B9: WBP7011-4.34.11 (antibody, V domains shown)
VH: EVQLQQSGPELVKPGASVKMSCKASGYTFTNYVIHWVKQKPGQGLEWIGYFNPYNDGTEYNEKFKAKATLTSDKSSSTAYMELSSLTSEDSAVYYCAKGPYYYGSSPFDYWGQGTTLTVSS
VL: DAVMTQTPLSLPVSLGDQASISCRSSQSLENSNGNTYLNWYLQKPGQSPQLLIYRVSNRFSGVLDRFSGSGSGTDFTLKISRVEAEDLGVYFCLQVTHVPYTFGGGTKLEIK
Consider B9, for which the EC50 came out at 0.23 nM in experiment [1] and 0.443 nM in experiment [4]. In experiment [2], this molecule gave a Kd of 0.181 nM. For the same molecule, in experiment [3], the “EC50 of cell viability, Fab-Zap assay” value stood at 0.007 nM.

B10: WBP7011_4.191.6 (antibody, mouse IgG1, V domains shown)
VH: EVQLLQSGPELVKPGASVKMSCKASGYTFTDYVIHWVKQRPGQGLEWIGYINPYNDGSEYSEKFKGKATLTSDKSSSTAYMELSSLTSEDSAVYYCARGPYYYGGSPFDYWGQGTTLTVSS
VL: DAVMTQTPLSLPVSLGDQASISCRSSQSLENSNGNTYLNWYLQKPGQSPQLLIYRVSNRFSGVLDRFSGSGSGTDFTLKISRVEAEDLGVYFCLQVTHVPYTFGGGTKLEIK
notes: Mouse monoclonal from hybridoma; isotype printed only for the sister subclone 4.191.3 (mouse IgG1, kappa); also called W7011-4.191.6
The molecule B10 returned an EC50 in experiment [1] of 0.07 nM. The “EC50 of cell viability, Fab-Zap assay” value in experiment [3] was 0.0191 nM.

B11: WBP7011-4.106.3 (antibody, V domains shown)
VH: EVQLQQSGPELVKPGASVKMSCKASGYTFSSYVIHWVKQKPGQGLEWIGYINPYNDGAEYAEKFKGKATLTSDKSSSSAYMELGSLTSEDSAVYYCARGPYYYGGSPFDYWGQGTTLTVSS
VL: DAVMTQTPLSLPVSLGDQASISCRSSQSLENSNGNTYLNWYLQKPGQSPQLLIYRVSNRFSGVLDRFSGSGSGTDFTLKISRVEAEDLGVYFCLQVTHVPYTFGGGTKLEIK
notes: also called W7011-4.106.3
Take B11: the EC50 worked out at 0.23 nM in experiment [1] and 0.496 nM in experiment [4]. Also, in experiment [2], binding was characterised by a dissociation constant (Kd) of 0.231 nM. For the same molecule, the “EC50 of cell viability, Fab-Zap assay” value in experiment [3] turned out to be 0.0136 nM.

The values above are taken from patent US20200289563A1 (WUXI BIOLOGICS IRELAND, published 2020).
